Earlier results, collected in paper PMC10466379.

Columns and labels:
Experiment in all cases: not stated (values taken from the PKAD database; the article says PKAD values come mainly from NMR or IR titrations)
Conditions in all cases: not stated (the curated set excludes proteins with ligands, nucleic acids and structural metal ions)
Lys39 = Lys39 (UniProt position 39, EFPGGKIEMGE)
His50 = His50 (UniProt position 77, GSSYPHWFTNG)
His150 = His150 (UniProt position 177, LKLCSH-----)
His137 = His137 (UniProt position 164, CGIIAHTKENQ)
His35 = His35 (UniProt position 62, AESNSHHAPLS)
His36 = His36 (UniProt position 63, ESNSHHAPLSD)
His92 [1] = target: His92 (UniProt position 119, NGKTDHYLLQF)
Glu96 = Glu96 (UniProt position 123, DHYLLEFPTFP)
His92 [2] = target: His92 (UniProt position 119, NGKTDHYLLEF)
His82 = His82 (UniProt position 109, DRPPKHSKDGN)
His104 = His104 (UniProt position 131, TFPDGHDYKFD)
His72 = His72 (UniProt position 73, GINTAHKARQV)
His60 = His60 (UniProt position 60, NETQTHQQVGN)
His46 = His46 (UniProt position 128, TPETKHPKKGV)
His8 [3] = target: His8 (UniProt position 90, STKKLHKEPAT)
His124 [4] = target: His124 (UniProt position 206, NTHEQHLRKSE)
His121 = His121 (UniProt position 203, KPNNTHEQHLR)
His8 [5] = target: His8 (UniProt position 90, STKKLHAEPAT)
His124 [6] = target: His124 (UniProt position 206, NTHEQHLRASE)
His124 [7] = target: His124 (UniProt position 206, NTHEQHLRKAE)
Glu92 = Glu92 (UniProt position 174, RGLAYEYADGK)
Glu36 = Glu36 (UniProt position 118, PMTFRELLVDT)
Glu103 = Glu103 (UniProt position 185, MVNEAEVRQGL)
Glu39 = Glu39 (UniProt position 121, FRLLLEDTPET)
Glu66 = Glu66 (UniProt position 148, FTKKMEENAKK)
Glu74 = Glu74 (UniProt position 156, AKKIEEEFDKG)
Glu99 = Glu99 (UniProt position 181, ADGKMENEALV)

Row | Substance | pKa (His46) | pKa (His8 [3]) | pKa (His124 [4]) | pKa (His121) | other results
1 | MutT protein (Escherichia coli (inferred from PDB 1MUT; not stated in the article)) | – | – | – | – | pKa (Lys39): 8.4
2 | alpha-sarcin E96Q (parent PDB 1DE3) (Aspergillus giganteus (inferred from PDB 1DE3; not stated in the article); E96Q) | – | – | – | – | pKa (His50): 6.4; pKa (His150): 7.9; pKa (His137): 5.9; pKa (His35): 6.3; pKa (His36): 7.3; pKa (His92 [1]): 7.2
3 | alpha-sarcin H50Q (parent PDB 1DE3) (Aspergillus giganteus (inferred from PDB 1DE3; not stated in the article); H50Q) | – | – | – | – | pKa (Glu96): 5; pKa (His92 [2]): 7.3; pKa (His150): 7.3; pKa (His137): 6.1; pKa (His35): 6.2; pKa (His82): 7.4
4 | alpha-sarcin H50Q/H137Q (parent PDB 1DE3) (Aspergillus giganteus (inferred from PDB 1DE3; not stated in the article); H50Q;H137Q) | – | – | – | – | pKa (Glu96): 5.4; pKa (His104): 7.3; pKa (His92 [2]): 7.4; pKa (His150): 7.6; pKa (His35): 6.3; pKa (His36): 7.3; pKa (His82): 7
5 | alpha-sarcin H137Q (parent PDB 1DE3) (Aspergillus giganteus (inferred from PDB 1DE3; not stated in the article); H137Q) | – | – | – | – | pKa (Glu96): 5.7; pKa (His104): 6.6; pKa (His92 [2]): 7.1; pKa (His150): 7.7; pKa (His35): 6.3; pKa (His82): 7.4
6 | bovine heart phosphotyrosyl phosphatase (low molecular weight PTPase) (Bos taurus) | – | – | – | – | pKa (His72): 9.19
7 | family 11 xylanase (PDB 1H4G) (Bacillus agaradhaerens (inferred from PDB 1H4G; not stated in the article)) | – | – | – | – | pKa (His60): 4.01
8 | staphylococcal nuclease D77A (parent PDB 1STN) (Staphylococcus aureus (inferred from PDB 1STN; not stated in the article); D77A) | 6.43 | 6.44 | 5.77 | 5.89 | –
9 | staphylococcal nuclease D77N (parent PDB 1STN) (Staphylococcus aureus (inferred from PDB 1STN; not stated in the article); D77N) | 6.53 | 6.29 | 5.81 | 5.77 | –
10 | staphylococcal nuclease E73A (parent PDB 1STN) (Staphylococcus aureus (inferred from PDB 1STN; not stated in the article); E73A) | 6.51 | 6.47 | 5.63 | 5.24 | –
11 | staphylococcal nuclease E101A (parent PDB 1STN) (Staphylococcus aureus (inferred from PDB 1STN; not stated in the article); E101A) | 6.4 | 6.49 | 5.04 | 5.26 | –
12 | staphylococcal nuclease K9A (parent PDB 1STN) (Staphylococcus aureus (inferred from PDB 1STN; not stated in the article); K9A) | 6.47 | – | 5.67 | 5.48 | pKa (His8 [5]): 6.73
13 | staphylococcal nuclease K127A (parent PDB 1STN) (Staphylococcus aureus (inferred from PDB 1STN; not stated in the article); K127A) | 6.45 | 6.51 | – | 5.3 | pKa (His124 [6]): 5.99
14 | staphylococcal nuclease S128A (parent PDB 1STN) (Staphylococcus aureus (inferred from PDB 1STN; not stated in the article); S128A) | 6.49 | 6.53 | – | 5.25 | pKa (His124 [7]): 5.71
15 | staphylococcal nuclease Y91A (parent PDB 1STN) (Staphylococcus aureus (inferred from PDB 1STN; not stated in the article); Y91A) | 6.52 | 6.42 | 5.82 | 5.32 | –
16 | staphylococcal nuclease Y91F (parent PDB 1STN) (Staphylococcus aureus (inferred from PDB 1STN; not stated in the article); Y91F) | 6.39 | 6.36 | 5.65 | 6.04 | –
17 | staphylococcal nuclease Y93A (parent PDB 1STN) (Staphylococcus aureus (inferred from PDB 1STN; not stated in the article); Y93A) | 6.48 | 6.45 | 5.68 | 5.94 | –
18 | staphylococcal nuclease Y93F (parent PDB 1STN) (Staphylococcus aureus (inferred from PDB 1STN; not stated in the article); Y93F) | 6.42 | 6.46 | 5.52 | – | –
19 | staphylococcal nuclease variant I92E (parent PDB 2LKV) (Staphylococcus aureus (inferred from PDB 2LKV; not stated in the article); I92E) | – | – | – | – | pKa (Glu92): 9
20 | staphylococcal nuclease variant L36E (parent PDB 2LKV) (Staphylococcus aureus (inferred from PDB 2LKV; not stated in the article); L36E) | – | – | – | – | pKa (Glu36): 8.7
21 | staphylococcal nuclease variant L103E (parent PDB 2LKV) (Staphylococcus aureus (inferred from PDB 2LKV; not stated in the article); L103E) | – | – | – | – | pKa (Glu103): 8.9
22 | staphylococcal nuclease variant V39E (parent PDB 2LKV) (Staphylococcus aureus (inferred from PDB 2LKV; not stated in the article); V39E) | – | – | – | – | pKa (Glu39): 8.2
23 | staphylococcal nuclease variant V66E (parent PDB 2LKV) (Staphylococcus aureus (inferred from PDB 2LKV; not stated in the article); V66E) | – | – | – | – | pKa (Glu66): 8.5
24 | staphylococcal nuclease variant V74E (parent PDB 2LKV) (Staphylococcus aureus (inferred from PDB 2LKV; not stated in the article); V74E) | – | – | – | – | pKa (Glu74): 7.8
25 | staphylococcal nuclease variant V99E (parent PDB 2LKV) (Staphylococcus aureus (inferred from PDB 2LKV; not stated in the article); V99E) | – | – | – | – | pKa (Glu99): 8.4
